Test results reported in patent US20190134153A1, “IMMUNOMODULATORY EFFECT OF INHALED KINASE INHIBITOR PEPTIDES IN LUNG” (MOERAE MATRIX, INC., priority 2017, published 2019).

Experiments:
Test in all cases: Kinase Profiling Assay
Assay type in all cases: biochemical
Details in all cases: 100 μM
CDK3/cyclinE(h) = CDK3/cyclinE(h) (Homo sapiens, UniProt Q00526)
Flt4(h) = Flt4(h) (Homo sapiens, UniProt P35916)
Met(h) = Met(h) (Homo sapiens, UniProt P08581)
MST1(h) = target: T1, MST1(h) (Homo sapiens, UniProt Q13043)
T1 sequence (Q13043 1-487): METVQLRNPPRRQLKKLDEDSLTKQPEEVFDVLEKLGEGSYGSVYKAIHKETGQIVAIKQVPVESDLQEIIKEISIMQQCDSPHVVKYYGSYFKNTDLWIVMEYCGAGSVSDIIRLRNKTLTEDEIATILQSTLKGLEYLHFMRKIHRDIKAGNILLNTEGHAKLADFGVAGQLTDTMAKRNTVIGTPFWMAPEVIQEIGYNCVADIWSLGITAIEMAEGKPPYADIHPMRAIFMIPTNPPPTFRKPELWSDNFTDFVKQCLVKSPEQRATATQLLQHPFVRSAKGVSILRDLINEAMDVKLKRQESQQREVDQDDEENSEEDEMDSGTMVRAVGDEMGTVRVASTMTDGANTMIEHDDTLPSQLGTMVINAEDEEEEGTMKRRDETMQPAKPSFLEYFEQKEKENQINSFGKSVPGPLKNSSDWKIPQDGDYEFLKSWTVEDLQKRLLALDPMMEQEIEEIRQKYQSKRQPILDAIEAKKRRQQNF

PAK2(h) = PAK2(h) (Homo sapiens, UniProt Q13177)
PAK2(h), sequence (Q13177 whole entry): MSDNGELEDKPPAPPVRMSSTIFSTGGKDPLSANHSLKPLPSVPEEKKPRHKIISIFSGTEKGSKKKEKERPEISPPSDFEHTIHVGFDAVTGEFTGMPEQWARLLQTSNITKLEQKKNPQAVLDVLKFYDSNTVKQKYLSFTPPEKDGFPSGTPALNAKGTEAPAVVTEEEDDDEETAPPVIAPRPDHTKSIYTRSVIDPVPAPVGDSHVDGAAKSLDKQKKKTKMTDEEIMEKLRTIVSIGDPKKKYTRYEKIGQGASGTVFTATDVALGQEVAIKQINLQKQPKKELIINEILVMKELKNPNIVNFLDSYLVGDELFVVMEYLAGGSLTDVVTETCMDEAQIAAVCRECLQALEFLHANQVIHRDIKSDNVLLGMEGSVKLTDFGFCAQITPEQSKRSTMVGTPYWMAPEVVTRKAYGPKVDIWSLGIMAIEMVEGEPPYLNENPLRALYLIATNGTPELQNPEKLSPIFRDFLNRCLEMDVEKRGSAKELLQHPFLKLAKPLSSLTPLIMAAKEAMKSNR

PKBβ(h) = PKBβ(h) (Homo sapiens, UniProt P31751)
PKBβ(h), sequence (P31751 whole entry): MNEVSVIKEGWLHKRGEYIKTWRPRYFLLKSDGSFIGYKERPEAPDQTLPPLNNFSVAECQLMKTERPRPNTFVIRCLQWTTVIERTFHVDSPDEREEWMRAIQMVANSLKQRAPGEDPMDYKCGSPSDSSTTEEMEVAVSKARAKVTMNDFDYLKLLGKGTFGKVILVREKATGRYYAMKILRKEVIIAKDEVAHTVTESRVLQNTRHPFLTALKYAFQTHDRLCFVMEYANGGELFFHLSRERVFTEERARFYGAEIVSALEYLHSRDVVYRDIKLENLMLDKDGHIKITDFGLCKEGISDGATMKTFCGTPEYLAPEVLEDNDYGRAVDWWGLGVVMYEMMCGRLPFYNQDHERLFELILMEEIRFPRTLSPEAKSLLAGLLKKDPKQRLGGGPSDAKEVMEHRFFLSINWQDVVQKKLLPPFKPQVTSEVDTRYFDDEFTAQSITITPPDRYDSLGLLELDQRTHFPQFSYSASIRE

PKCβII(h) = PKCβII(h) (Homo sapiens, UniProt P05771)
PKCβII(h), sequence (P05771 1-673 isoform P05771-2): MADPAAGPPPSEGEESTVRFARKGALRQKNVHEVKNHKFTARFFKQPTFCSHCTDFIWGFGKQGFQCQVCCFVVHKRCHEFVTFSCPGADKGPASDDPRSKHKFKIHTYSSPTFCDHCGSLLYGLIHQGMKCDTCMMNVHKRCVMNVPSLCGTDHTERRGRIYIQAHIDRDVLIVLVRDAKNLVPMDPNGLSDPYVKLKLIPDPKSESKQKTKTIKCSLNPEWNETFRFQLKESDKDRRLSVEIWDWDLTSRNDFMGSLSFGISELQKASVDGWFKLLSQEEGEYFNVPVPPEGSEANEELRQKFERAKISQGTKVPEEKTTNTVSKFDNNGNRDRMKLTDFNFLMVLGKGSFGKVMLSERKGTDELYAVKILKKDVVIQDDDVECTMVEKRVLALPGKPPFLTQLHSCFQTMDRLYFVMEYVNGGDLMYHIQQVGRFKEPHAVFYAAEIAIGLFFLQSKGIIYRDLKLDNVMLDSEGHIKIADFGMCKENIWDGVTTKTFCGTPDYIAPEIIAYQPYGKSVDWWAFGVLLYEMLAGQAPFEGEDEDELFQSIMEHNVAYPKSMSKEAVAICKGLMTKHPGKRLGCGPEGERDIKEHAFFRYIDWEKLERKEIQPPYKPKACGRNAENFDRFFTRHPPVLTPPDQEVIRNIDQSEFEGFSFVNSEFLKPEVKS

PKCμ(h) = target: T2, PKCμ(h) (Homo sapiens, UniProt Q15139)
T2 sequence (Q15139 1-912): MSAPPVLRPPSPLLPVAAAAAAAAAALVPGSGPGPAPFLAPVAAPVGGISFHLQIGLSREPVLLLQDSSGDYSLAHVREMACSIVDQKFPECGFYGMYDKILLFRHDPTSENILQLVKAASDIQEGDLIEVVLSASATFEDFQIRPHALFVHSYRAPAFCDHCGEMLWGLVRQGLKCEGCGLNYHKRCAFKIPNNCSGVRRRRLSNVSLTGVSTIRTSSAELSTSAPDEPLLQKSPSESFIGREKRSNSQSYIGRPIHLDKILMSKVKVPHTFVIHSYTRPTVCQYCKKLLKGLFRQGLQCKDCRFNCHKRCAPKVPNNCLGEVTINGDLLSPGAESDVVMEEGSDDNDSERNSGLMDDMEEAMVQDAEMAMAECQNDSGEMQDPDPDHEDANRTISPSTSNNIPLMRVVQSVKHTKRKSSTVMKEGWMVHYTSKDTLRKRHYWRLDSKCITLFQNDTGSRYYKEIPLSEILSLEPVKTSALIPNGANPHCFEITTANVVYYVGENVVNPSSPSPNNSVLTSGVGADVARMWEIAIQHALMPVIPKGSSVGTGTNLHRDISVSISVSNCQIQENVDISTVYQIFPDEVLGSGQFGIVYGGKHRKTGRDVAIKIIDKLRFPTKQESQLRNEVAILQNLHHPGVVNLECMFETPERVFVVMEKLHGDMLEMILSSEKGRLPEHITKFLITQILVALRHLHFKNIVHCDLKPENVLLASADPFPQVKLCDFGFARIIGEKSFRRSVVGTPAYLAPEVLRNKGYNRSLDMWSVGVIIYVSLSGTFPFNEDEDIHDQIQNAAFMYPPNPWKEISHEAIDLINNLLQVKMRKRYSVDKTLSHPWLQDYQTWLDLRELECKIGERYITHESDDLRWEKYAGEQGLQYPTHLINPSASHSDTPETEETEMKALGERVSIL

PKCζ(h) = target: T3, PKCζ(h) (Homo sapiens, UniProt Q05513)
T3 sequence (Q05513 1-592): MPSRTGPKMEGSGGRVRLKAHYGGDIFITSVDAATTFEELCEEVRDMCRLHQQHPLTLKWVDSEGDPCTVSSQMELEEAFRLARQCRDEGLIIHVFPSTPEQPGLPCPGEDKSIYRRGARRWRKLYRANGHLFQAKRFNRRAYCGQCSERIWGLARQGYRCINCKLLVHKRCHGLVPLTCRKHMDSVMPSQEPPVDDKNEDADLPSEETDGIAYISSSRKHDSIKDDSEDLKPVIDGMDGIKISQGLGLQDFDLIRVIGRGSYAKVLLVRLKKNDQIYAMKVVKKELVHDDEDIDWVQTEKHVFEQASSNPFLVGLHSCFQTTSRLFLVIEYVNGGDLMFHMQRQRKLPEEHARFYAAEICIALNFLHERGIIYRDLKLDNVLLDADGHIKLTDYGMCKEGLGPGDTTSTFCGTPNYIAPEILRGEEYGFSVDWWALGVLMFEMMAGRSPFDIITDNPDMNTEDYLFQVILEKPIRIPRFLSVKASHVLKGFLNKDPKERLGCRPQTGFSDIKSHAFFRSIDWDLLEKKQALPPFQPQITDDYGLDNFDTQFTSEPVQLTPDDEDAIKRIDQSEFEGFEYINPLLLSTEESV

Rsk4(h) = Rsk4(h) (Homo sapiens, UniProt Q9UK32)
Rsk4(h), sequence (Q9UK32 whole entry): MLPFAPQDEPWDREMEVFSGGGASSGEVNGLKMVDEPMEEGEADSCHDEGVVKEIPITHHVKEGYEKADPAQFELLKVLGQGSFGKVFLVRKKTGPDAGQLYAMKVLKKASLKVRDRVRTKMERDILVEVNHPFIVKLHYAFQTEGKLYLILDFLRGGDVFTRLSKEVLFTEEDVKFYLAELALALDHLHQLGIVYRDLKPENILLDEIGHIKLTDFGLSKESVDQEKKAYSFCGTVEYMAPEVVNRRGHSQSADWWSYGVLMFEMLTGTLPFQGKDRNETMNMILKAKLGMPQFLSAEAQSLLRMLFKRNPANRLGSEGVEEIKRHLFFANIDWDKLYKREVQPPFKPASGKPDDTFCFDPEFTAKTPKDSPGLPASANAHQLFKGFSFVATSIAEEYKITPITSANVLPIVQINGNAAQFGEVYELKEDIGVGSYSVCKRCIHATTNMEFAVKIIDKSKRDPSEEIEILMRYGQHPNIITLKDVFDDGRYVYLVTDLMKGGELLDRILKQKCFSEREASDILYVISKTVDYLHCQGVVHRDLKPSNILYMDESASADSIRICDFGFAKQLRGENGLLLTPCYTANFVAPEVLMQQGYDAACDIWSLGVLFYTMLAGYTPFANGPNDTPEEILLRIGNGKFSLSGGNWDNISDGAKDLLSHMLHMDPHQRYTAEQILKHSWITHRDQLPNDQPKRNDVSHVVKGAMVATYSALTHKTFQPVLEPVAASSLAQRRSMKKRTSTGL

SRPK2(h) = SRPK2(h) (Homo sapiens, UniProt P78362)
SRPK2(h), sequence (P78362 whole entry): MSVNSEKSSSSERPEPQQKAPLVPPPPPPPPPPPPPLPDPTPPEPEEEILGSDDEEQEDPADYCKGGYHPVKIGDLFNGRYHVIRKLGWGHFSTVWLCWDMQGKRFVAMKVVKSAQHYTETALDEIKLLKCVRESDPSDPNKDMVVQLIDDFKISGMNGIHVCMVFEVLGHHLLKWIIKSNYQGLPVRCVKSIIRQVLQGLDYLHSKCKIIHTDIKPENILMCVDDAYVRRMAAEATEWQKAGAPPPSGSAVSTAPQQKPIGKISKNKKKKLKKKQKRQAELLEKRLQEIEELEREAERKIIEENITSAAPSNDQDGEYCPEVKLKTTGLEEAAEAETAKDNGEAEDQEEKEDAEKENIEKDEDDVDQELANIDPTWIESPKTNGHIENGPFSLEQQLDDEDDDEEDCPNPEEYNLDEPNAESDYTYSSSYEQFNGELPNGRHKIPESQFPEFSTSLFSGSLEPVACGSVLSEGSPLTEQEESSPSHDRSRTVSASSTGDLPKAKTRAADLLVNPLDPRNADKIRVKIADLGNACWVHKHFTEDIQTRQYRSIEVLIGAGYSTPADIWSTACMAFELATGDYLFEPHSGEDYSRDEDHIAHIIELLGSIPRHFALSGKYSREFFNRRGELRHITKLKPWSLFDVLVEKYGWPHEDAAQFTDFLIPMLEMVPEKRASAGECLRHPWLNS

Met(h), sequence (P08581 25-1390): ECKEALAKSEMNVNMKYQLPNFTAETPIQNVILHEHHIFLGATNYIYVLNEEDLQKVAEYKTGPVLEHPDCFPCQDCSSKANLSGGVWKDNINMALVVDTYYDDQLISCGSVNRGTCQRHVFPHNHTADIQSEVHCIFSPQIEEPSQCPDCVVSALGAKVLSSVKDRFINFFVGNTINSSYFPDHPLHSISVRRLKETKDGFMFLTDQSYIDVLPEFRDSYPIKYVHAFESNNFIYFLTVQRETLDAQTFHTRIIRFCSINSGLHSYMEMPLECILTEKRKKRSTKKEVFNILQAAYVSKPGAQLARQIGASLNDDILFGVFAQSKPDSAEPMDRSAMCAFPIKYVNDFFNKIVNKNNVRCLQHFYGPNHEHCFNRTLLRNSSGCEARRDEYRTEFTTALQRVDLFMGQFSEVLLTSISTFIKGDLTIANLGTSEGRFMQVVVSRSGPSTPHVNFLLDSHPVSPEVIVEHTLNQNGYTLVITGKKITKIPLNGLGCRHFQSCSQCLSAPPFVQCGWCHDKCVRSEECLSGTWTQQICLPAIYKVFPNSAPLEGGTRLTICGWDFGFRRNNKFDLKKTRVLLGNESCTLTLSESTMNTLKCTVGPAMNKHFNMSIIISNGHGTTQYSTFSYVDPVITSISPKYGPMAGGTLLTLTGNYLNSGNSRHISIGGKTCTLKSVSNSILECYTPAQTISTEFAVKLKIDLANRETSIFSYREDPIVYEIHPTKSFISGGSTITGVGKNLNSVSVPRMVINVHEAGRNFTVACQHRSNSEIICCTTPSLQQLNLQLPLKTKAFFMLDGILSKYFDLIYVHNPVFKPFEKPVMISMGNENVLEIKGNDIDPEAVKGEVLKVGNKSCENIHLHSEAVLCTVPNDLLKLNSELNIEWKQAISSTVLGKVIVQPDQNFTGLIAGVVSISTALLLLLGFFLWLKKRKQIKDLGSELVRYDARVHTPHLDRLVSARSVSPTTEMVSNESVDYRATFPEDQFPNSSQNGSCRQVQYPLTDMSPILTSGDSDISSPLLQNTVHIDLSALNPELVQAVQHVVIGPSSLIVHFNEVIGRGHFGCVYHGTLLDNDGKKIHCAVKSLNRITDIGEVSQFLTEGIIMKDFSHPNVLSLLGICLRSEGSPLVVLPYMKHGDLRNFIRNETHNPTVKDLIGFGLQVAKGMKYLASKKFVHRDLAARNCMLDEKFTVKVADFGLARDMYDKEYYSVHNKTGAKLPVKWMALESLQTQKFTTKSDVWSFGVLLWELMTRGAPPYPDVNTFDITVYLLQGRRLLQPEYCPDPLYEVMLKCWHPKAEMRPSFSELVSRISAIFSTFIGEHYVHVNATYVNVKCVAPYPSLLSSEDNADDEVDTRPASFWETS

| Sequence | % activity (CDK3/cyclinE(h)) [%] | % activity (Flt4(h)) [%] | % activity (Met(h)) [%] | % activity (MST1(h)) [%] | % activity (PAK2(h)) [%] | % activity (PKBβ(h)) [%] | % activity (PKCβII(h)) [%] | % activity (PKCμ(h)) [%] | % activity (PKCζ(h)) [%] | % activity (Rsk4(h)) [%] | % activity (SRPK2(h)) [%] |
| --- | --- | --- | --- | --- | --- | --- | --- | --- | --- | --- | --- |
| FAKLAARLYRKALARQLGVAA [MMI-0300] | 94 | 83 | 65 | 14 | 65 | 84 | 82 | 22 | 81 | 90 | – |
| KAFAKLAARLYRKALARQLGVAA [MMI-0400] | 92 | 89 | 62 | 6 | 59 | 98 | 75 | 14 | 75 | 91 | 97 |
| HRRIKAWLKKIKALARQLGVAA [MMI-0500] | 8 | 73 | 27 | 3 | 44 | 21 | 3 | 10 | 7 | 29 | 80 |
| YARAAARQARAKALNRQLGVA [MMI-0200] | – | – | 71 | 72 | 69 | 250 | 100 | 73 | 98 | 125 | 100 |
